Numbered stars: 1 amine (or outer) side, 2 acyl side, 3 side chain; on linkers, the order of the positions; unused ones are H or OH. Bridge positions count the residues as written; N and C are the ends. Square brackets hold non-standard residues; d marks the D form. * marks the point of attachment. Hyp(Bzl) = O-benzyl-hydroxyproline, O=C([C@@H]1C[C@@H](OCc2ccccc2)CN1[*:1])[*:2]; Pro(4R-Bn) = O=C(O)[C@@H]1C[C@@H](Cc2ccccc2)CN1; Orn = NCCC[C@H](N)C(=O)O; NHcPr = C1CC1N*
B1: Ac-Arg-cyclo(Glu-Lys-D-Phe-Arg-Trp-Orn)-OH (peptide)
peptide: REKFRWX
HELM: PEPTIDE1{[ac].R.E.K.[dF].R.W.[Orn]}$PEPTIDE1,PEPTIDE1,3:R3-8:R3$$$V2.0
SMILES: CC(=O)N[C@@H](CCCNC(=N)N)C(=O)N[C@H]1CCC(=O)NCCC[C@@H](C(=O)O)NC(=O)[C@H](Cc2c[nH]c3ccccc23)NC(=O)[C@H](CCCNC(=N)N)NC(=O)[C@@H](Cc2ccccc2)NC(=O)[C@H](CCCCN)NC1=O
notes: also called peptide No. 89
B2: Ac-Arg-cyclo(Asp-Asn-D-Phe-Arg-Trp-Lys)-NH2 (peptide)
peptide: RDNFRWK
HELM: PEPTIDE1{[ac].R.D.N.[dF].R.W.K.[am]}$PEPTIDE1,PEPTIDE1,3:R3-8:R3$$$V2.0
SMILES: CC(=O)N[C@@H](CCCNC(=N)N)C(=O)N[C@H]1CC(=O)NCCCC[C@@H](C(N)=O)NC(=O)[C@H](Cc2c[nH]c3ccccc23)NC(=O)[C@H](CCCNC(=N)N)NC(=O)[C@@H](Cc2ccccc2)NC(=O)[C@H](CC(N)=O)NC1=O
notes: also called peptide No. 29
B3: Ac-Arg-cyclo(Asp-His-D-(alpha-Me)Phe-Arg-Trp-Lys)-NH2 (peptide)
peptide: RDHFRWK
HELM: PEPTIDE1{[ac].R.D.H.[C[C@](Cc1ccccc1)(N[*:1])C(=O)[*:2]].R.W.K.[am]}$PEPTIDE1,PEPTIDE1,3:R3-8:R3$$$V2.0
SMILES: CC(=O)N[C@@H](CCCNC(=N)N)C(=O)N[C@H]1CC(=O)NCCCC[C@@H](C(N)=O)NC(=O)[C@H](Cc2c[nH]c3ccccc23)NC(=O)[C@H](CCCNC(=N)N)NC(=O)[C@@](C)(Cc2ccccc2)NC(=O)[C@H](Cc2c[nH]cn2)NC1=O
notes: also called peptide No. 60
B4: Ac-Arg-cyclo(Asp-Tyr-D-Phe-Arg-Trp-Lys)-NH2 (peptide)
peptide: RDYFRWK
HELM: PEPTIDE1{[ac].R.D.Y.[dF].R.W.K.[am]}$PEPTIDE1,PEPTIDE1,3:R3-8:R3$$$V2.0
SMILES: CC(=O)N[C@@H](CCCNC(=N)N)C(=O)N[C@H]1CC(=O)NCCCC[C@@H](C(N)=O)NC(=O)[C@H](Cc2c[nH]c3ccccc23)NC(=O)[C@H](CCCNC(=N)N)NC(=O)[C@@H](Cc2ccccc2)NC(=O)[C@H](Cc2ccc(O)cc2)NC1=O
notes: also called peptide No. 11
B5: Ac-Arg-cyclo(Asp-Lys-D-Phe-Lys-Trp-Lys)-NH2 (peptide)
peptide: RDKFKWK
HELM: PEPTIDE1{[ac].R.D.K.[dF].K.W.K.[am]}$PEPTIDE1,PEPTIDE1,3:R3-8:R3$$$V2.0
SMILES: CC(=O)N[C@@H](CCCNC(=N)N)C(=O)N[C@H]1CC(=O)NCCCC[C@@H](C(N)=O)NC(=O)[C@H](Cc2c[nH]c3ccccc23)NC(=O)[C@H](CCCCN)NC(=O)[C@@H](Cc2ccccc2)NC(=O)[C@H](CCCCN)NC1=O
notes: also called peptide No. 7
B6: Ac-Arg-cyclo(Asp-Ala-D-Phe-Arg-Trp-Lys)-OH (peptide)
peptide: RDAFRWK
HELM: PEPTIDE1{[ac].R.D.A.[dF].R.W.K}$PEPTIDE1,PEPTIDE1,3:R3-8:R3$$$V2.0
SMILES: CC(=O)N[C@@H](CCCNC(=N)N)C(=O)N[C@H]1CC(=O)NCCCC[C@@H](C(=O)O)NC(=O)[C@H](Cc2c[nH]c3ccccc23)NC(=O)[C@H](CCCNC(=N)N)NC(=O)[C@@H](Cc2ccccc2)NC(=O)[C@H](C)NC1=O
notes: also called peptide No. 52
B7: Ac-Lys-cyclo(Asp-His-D-Phe-Arg-Trp-Lys)-NH2 (peptide)
peptide: KDHFRWK
HELM: PEPTIDE1{[ac].K.D.H.[dF].R.W.K.[am]}$PEPTIDE1,PEPTIDE1,3:R3-8:R3$$$V2.0
SMILES: CC(=O)N[C@@H](CCCCN)C(=O)N[C@H]1CC(=O)NCCCC[C@@H](C(N)=O)NC(=O)[C@H](Cc2c[nH]c3ccccc23)NC(=O)[C@H](CCCNC(=N)N)NC(=O)[C@@H](Cc2ccccc2)NC(=O)[C@H](Cc2c[nH]cn2)NC1=O
notes: also called peptide No. 135
B8: Ac-Arg-cyclo(Asp-Met-D-Phe-Arg-Trp-Lys)-NH2 (peptide)
peptide: RDMFRWK
HELM: PEPTIDE1{[ac].R.D.M.[dF].R.W.K.[am]}$PEPTIDE1,PEPTIDE1,3:R3-8:R3$$$V2.0
SMILES: CSCC[C@@H]1NC(=O)[C@@H](NC(=O)[C@H](CCCNC(=N)N)NC(C)=O)CC(=O)NCCCC[C@@H](C(N)=O)NC(=O)[C@H](Cc2c[nH]c3ccccc23)NC(=O)[C@H](CCCNC(=N)N)NC(=O)[C@@H](Cc2ccccc2)NC1=O
notes: also called peptide No. 38
B9: Ac-Arg-cyclo(Asp-Ile-D-Phe-Arg-Trp-Lys)-NH2 (peptide)
peptide: RDIFRWK
HELM: PEPTIDE1{[ac].R.D.I.[dF].R.W.K.[am]}$PEPTIDE1,PEPTIDE1,3:R3-8:R3$$$V2.0
SMILES: CC[C@H](C)[C@@H]1NC(=O)[C@@H](NC(=O)[C@H](CCCNC(=N)N)NC(C)=O)CC(=O)NCCCC[C@@H](C(N)=O)NC(=O)[C@H](Cc2c[nH]c3ccccc23)NC(=O)[C@H](CCCNC(=N)N)NC(=O)[C@@H](Cc2ccccc2)NC1=O
notes: also called peptide No. 34
B10: Ac-Arg-cyclo(Asp-His-D-Phe-Lys-Trp-Lys)-NH2 (peptide)
peptide: RDHFKWK
HELM: PEPTIDE1{[ac].R.D.H.[dF].K.W.K.[am]}$PEPTIDE1,PEPTIDE1,3:R3-8:R3$$$V2.0
SMILES: CC(=O)N[C@@H](CCCNC(=N)N)C(=O)N[C@H]1CC(=O)NCCCC[C@@H](C(N)=O)NC(=O)[C@H](Cc2c[nH]c3ccccc23)NC(=O)[C@H](CCCCN)NC(=O)[C@@H](Cc2ccccc2)NC(=O)[C@H](Cc2c[nH]cn2)NC1=O
notes: also called peptide No. 6
B11: Ac-Arg-cyclo(Asp-Ala-D-Phe-Lys-Trp-Lys)-NH2 (peptide)
peptide: RDAFKWK
HELM: PEPTIDE1{[ac].R.D.A.[dF].K.W.K.[am]}$PEPTIDE1,PEPTIDE1,3:R3-8:R3$$$V2.0
SMILES: CC(=O)N[C@@H](CCCNC(=N)N)C(=O)N[C@H]1CC(=O)NCCCC[C@@H](C(N)=O)NC(=O)[C@H](Cc2c[nH]c3ccccc23)NC(=O)[C@H](CCCCN)NC(=O)[C@@H](Cc2ccccc2)NC(=O)[C@H](C)NC1=O
notes: also called peptide No. 8
B12: Ac-Arg-cyclo(Asp-Trp-D-Phe-Arg-Trp-Lys)-NH2 (peptide)
peptide: RDWFRWK
HELM: PEPTIDE1{[ac].R.D.W.[dF].R.W.K.[am]}$PEPTIDE1,PEPTIDE1,3:R3-8:R3$$$V2.0
SMILES: CC(=O)N[C@@H](CCCNC(=N)N)C(=O)N[C@H]1CC(=O)NCCCC[C@@H](C(N)=O)NC(=O)[C@H](Cc2c[nH]c3ccccc23)NC(=O)[C@H](CCCNC(=N)N)NC(=O)[C@@H](Cc2ccccc2)NC(=O)[C@H](Cc2c[nH]c3ccccc23)NC1=O
notes: also called peptide No. 36
B13: Ac-Arg-cyclo(Asp-Gln-D-Phe-Arg-Trp-Lys)-NH2 (peptide)
peptide: Ac-RDQ[dF]RWK-NH2
modifications: lactam 2-7
notes: any difference is only in the drawings; also called peptide No. 78
B14: Ac-Arg-cyclo(Asp-Leu-D-Phe-Arg-Trp-Lys)-NH2 (peptide)
peptide: RDLFRWK
HELM: PEPTIDE1{[ac].R.D.L.[dF].R.W.K.[am]}$PEPTIDE1,PEPTIDE1,3:R3-8:R3$$$V2.0
SMILES: CC(=O)N[C@@H](CCCNC(=N)N)C(=O)N[C@H]1CC(=O)NCCCC[C@@H](C(N)=O)NC(=O)[C@H](Cc2c[nH]c3ccccc23)NC(=O)[C@H](CCCNC(=N)N)NC(=O)[C@@H](Cc2ccccc2)NC(=O)[C@H](CC(C)C)NC1=O
notes: also called peptide No. 12
B15: Ac-Arg-cyclo(Orn-Ala-D-Phe-Arg-Trp-Glu)-NH2 (peptide)
peptide: RXAFRWE
HELM: PEPTIDE1{[ac].R.[Orn].A.[dF].R.W.E.[am]}$PEPTIDE1,PEPTIDE1,3:R3-8:R3$$$V2.0
SMILES: CC(=O)N[C@@H](CCCNC(=N)N)C(=O)N[C@H]1CCCNC(=O)CC[C@@H](C(N)=O)NC(=O)[C@H](Cc2c[nH]c3ccccc23)NC(=O)[C@H](CCCNC(=N)N)NC(=O)[C@@H](Cc2ccccc2)NC(=O)[C@H](C)NC1=O
notes: also called peptide No. 120

biological target: T1, human recombinant melanocortin-4 receptor (human, UniProt P32245 1-332); experiment: competitive inhibition of Eu-NDP-α-MSH (TRF), hMC4-R HEK-293 membranes
T1 construct: whole, on cells; cAMP assays used the whole cells; also called hMC4-R; MC4-R
T1 sequence (P32245 whole entry): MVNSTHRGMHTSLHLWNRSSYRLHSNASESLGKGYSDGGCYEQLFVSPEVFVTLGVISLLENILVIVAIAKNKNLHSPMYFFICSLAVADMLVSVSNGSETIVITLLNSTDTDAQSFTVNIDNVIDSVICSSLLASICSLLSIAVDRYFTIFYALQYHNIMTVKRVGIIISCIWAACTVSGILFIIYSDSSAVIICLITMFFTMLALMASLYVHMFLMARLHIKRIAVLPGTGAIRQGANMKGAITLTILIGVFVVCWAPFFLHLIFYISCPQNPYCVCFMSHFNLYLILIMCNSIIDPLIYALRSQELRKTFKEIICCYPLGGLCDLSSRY
Experimental: After incubation for 90 minutes at 37° C., the reaction was stopped by filtration over AcroWell 96-well filter plates (Pall Life Sciences). The filter plates were washed 4 times with 200 μL of ice-cold phosphate-buffered saline. DELFIA Enhancement solution (PerkinElmer Life Sciences) was added to each well. The plates were incubated on a shaker for 15 minutes and read at 340 nm excitation and 615 nm emission wavelengths. Each assay was conducted in duplicate and mean values were utilized. Ki values were determined by curve-fitting with Graph-Pad Prism® software using a one-site fixed-slope competition binding model.
9.1 Peptides of the following structures were synthesized by the general methods described above, and averaged MC4-R Ki values for peptides were determined as indicated. […] Ki values marked “ND” were not determined.

| Binder | Ki |
| --- | --- |
| Ac-[dR]EH[dF]RW[Orn]-OH (lactam 2-7, also called peptide No. 85) [Ac-D-Arg-cyclo(Glu-His-D-Phe-Arg-Trp-Orn)-OH] | 40 nM |
| Ac-R[Orn]H[dF]RWE-OH (lactam 2-7, also called peptide No. 84) [Ac-Arg-cyclo(Orn-His-D-Phe-Arg-Trp-Glu)-OH] | 12 nM |
| Ac-RKH[dF]RWD-NH2 (lactam 2-7, also called peptide No. 96) [Ac-Arg-cyclo(Lys-His-D-Phe-Arg-Trp-Asp)-NH2] | 1 nM |
| Ac-[dR]D[Pro(4R-Bn)][dF]RWK-NH2 (lactam 2-7, also called peptide No. 72) [Ac-D-Arg-cyclo(Asp-Pro(4R-Bzl)-D-Phe-Arg-Trp-Lys)-NH2] | 2 nM |
| Ac-REH[dF]RW[Orn]-NH2 (lactam 2-7, also called peptide No. 64) [Ac-Arg-cyclo(Glu-His-D-Phe-Arg-Trp-Orn)-NH2] | 1 nM |
| B1 | 113 nM |
| Ac-RD[Hyp(Bzl)][dF]RWK-NH2 (lactam 2-7, also called peptide No. 15) [Ac-Arg-cyclo(Asp-Hyp(Bzl)-D-Phe-Arg-Trp-Lys)-NH2] | 0.7 nM |
| B2 | 32 nM |
| B3 | 47 nM |
| B4 | 43 nM |
| B5 | 2960 nM |
| B6 | 144 nM |
| B7 | 9 nM |
| Ac-RDT[dF]RWK-NH2 (lactam 2-7, also called peptide No. 35) [Ac-Arg-cyclo(Asp-Thr-D-Phe-Arg-Trp-Lys)-NH2] | 140 nM |
| B8 | 35 nM |
| B9 | 19 nM |
| Ac-[dR]DA[dF]RWK-NH2 (lactam 2-7, also called peptide No. 70) [Ac-D-Arg-cyclo(Asp-Ala-D-Phe-Arg-Trp-Lys)-NH2] | 46 nM |
| Ac-RDA[dF]RWK-NH2 (lactam 2-7, also called peptide No. 9) [Ac-Arg-cyclo(Asp-Ala-D-Phe-Arg-Trp-Lys)-NH2] | 19 nM |
| Ac-RDQ[dF]RWK-NHcPr (lactam 2-7) [Ac-Arg-cyclo(Asp-Gln-D-Phe-Arg-Trp-Lys)-NH-cyclopropyl] | 64 nM |
| B10 | 533 nM |
| B11 | 3020 nM |
| B12 | 37 nM |
| B13 | 86 nM |
| B14 | 33 nM |
| Ac-RD[Pro(4R-Bn)][dF]RWK-NH2 (lactam 2-7, also called peptide No. 18) [Ac-Arg-cyclo(Asp-Pro(4R-Bzl)-D-Phe-Arg-Trp-Lys)-NH2] | 3 nM |
| B15 | 19 nM |
| Ac-K[Orn]H[dF]RWE-NH2 (lactam 2-7, also called peptide No. 132) [Ac-Lys-cyclo(Orn-His-D-Phe-Arg-Trp-Glu)-NH2] | 3 nM |
| Ac-[dK][Orn]H[dF]RWE-NH2 (lactam 2-7) [Ac-D-Lys-cyclo(Orn-His-D-Phe-Arg-Trp-Glu)-NH2] | 8 nM |

Reference: US20120178701A1 (PALATIN TECHNOLOGIES, published 2012)
